Measured values taken from patent publication US20070071724.

Molecular target: Nedd8-AMC (Boston Biochem), Q15843
Sequence (Q15843 whole entry, looked up): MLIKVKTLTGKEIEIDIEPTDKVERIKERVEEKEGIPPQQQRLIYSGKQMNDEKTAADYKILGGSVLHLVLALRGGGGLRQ

B1: Uch-L3 (Boston Biochem) (protein)
chain: MEGQRWLPLEANPEVTNQFLKQLGLHPNWQFVDVYGMDPELLSMVPRPVCAVLLLFPITEKYEVFRTEEEEKIKSQGQDVTSSVYFMKQTISNACGTIGLIHAIANNKDKMHFESGSTLKKFLEESVSMSPEERARYLENYDAIRVTHETSAHEGQTEAPSIDEKVDLHFIALVHVDGHLYELDGRKPFPINHGETSDETLLEDAIEVCKKFMERDPDELRFNAIALSAA
hydrolysis of Nedd8-AMC: there was no reduction in hydrolysis of Nedd8-AMC, a ubiquitin-like protein that binds to and is cleaved by Uch-L3, when 20 nM Uch-L3 was incubated with 5 µM LDN
